According to article PMC6731145:

Tests used:
CEBPβ T167D = CEBPβ T167D (mouse, UniProt P28033-3 1-275, T167D); experiment: EMSA
TFAP-2α = TFAP-2α (human, UniProt P05549 1-437); experiment: EMSA
Sequence of TFAP-2α (P05549 whole entry): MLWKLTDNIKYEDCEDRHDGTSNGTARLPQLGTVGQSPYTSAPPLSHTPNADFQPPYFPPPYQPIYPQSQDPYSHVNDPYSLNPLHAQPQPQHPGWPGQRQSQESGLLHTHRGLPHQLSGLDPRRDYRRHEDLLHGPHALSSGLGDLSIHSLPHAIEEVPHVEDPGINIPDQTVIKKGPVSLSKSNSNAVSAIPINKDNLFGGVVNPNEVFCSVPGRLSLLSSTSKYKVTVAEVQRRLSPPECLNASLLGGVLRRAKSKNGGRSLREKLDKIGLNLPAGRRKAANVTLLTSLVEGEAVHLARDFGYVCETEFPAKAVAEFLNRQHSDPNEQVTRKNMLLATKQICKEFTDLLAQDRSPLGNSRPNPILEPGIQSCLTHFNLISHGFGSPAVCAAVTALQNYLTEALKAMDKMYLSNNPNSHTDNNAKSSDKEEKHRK

Sequence of CEBPβ T167D (P28033 22-296 T188D): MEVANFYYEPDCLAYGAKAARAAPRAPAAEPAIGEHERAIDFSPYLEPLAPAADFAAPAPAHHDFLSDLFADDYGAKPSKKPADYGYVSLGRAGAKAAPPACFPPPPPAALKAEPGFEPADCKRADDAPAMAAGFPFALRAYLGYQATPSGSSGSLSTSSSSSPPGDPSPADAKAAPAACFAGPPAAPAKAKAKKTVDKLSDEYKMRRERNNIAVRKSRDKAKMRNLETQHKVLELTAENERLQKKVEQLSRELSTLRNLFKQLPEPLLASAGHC

Binder | binding result (CEBPβ T167D) | binding result (TFAP-2α)
CX3CR1-DNA (dsDNA) DNA 1: GATCCGCAGGGCCTCTCGGCTGCTGATCTTCAGCTGGTTGCTGAGAGTTGCAGCATTGCTGAGTCTTAGCAATGGATACTTCCCGATTCCCCTCACAAAAATAGGTCAGTCTGTCTGGCTAGTTCTGTACTTGCAGACACAGGGCATGTGGGGTTCCGGATC DNA 2: GATCCGGAACCCCACATGCCCTGTGTCTGCAAGTACAGAACTAGCCAGACAGACTGACCTATTTTTGTGAGGGGAATCGGGAAGTATCCATTGCTAAGACTCAGCAATGCTGCAACTCTCAGCAACCAGCTGAAGATCAGCAGCCGAGAGGCCCTGCGGATC | binds | 
NRCAM-DNA (dsDNA) DNA 1: GATCCATTACTTCTGAAACAGATGACTCCCAGCAGCTGCTGCCTGTGGCCCACAGGGCTTCCTGCCCTGCATGACAGCTGCACATCACATCCTGTGGTCATACTACTTCAGCCGCTTCTACGGCCAGATACAAAAGTGGGTGGGGAACATAGGCAAGGGATC DNA 2: GATCCCTTGCCTATGTTCCCCACCCACTTTTGTATCTGGCCGTAGAAGCGGCTGAAGTAGTATGACCACAGGATGTGATGTGCAGCTGTCATGCAGGGCAGGAAGCCCTGTGGGCCACAGGCAGCAGCTGCTGGGAGTCATCTGTTTCAGAAGTAATGGATC |  | binds
